{"source": "patent US20260265379A1", "data": [{"target": "BTN3A expressed at the cell surface (human), O00481", "sequence (O00481 30-513)": "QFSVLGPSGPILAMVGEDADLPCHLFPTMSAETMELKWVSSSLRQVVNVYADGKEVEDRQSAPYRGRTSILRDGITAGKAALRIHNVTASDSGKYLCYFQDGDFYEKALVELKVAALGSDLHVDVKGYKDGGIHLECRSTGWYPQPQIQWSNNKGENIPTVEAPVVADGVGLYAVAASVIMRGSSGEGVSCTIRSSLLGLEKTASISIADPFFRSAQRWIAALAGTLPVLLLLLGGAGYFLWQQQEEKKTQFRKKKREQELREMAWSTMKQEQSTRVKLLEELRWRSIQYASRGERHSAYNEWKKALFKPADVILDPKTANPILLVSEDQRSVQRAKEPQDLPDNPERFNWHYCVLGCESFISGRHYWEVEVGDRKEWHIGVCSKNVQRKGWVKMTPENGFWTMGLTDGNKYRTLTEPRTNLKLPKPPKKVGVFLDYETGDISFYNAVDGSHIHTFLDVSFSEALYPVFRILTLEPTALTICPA", "assay": "cell-based or functional assay", "units": {"dose at which Jurkat-Vγ9Vδ2 TCR MOP activation was evident": "nM", "increase in CD107ab expression on Vγ9Vδ2 T cells co-cultured with SKOV3 cells, 0.1 nM": "fold"}, "values": [{"binder": "bsAb010 (bispecific antibody) heavy: QVQLVQSGAEVKKPGASVKLSCKASGYIFTRYYMYWVKQRPGQGLEWIGEINPNNGGTKFNEKFKNRATLTVDKSISTAYMELSRLRSDDTAVYYCSREDDYDGTPFAMDYWGQGTLVTVSSASTKGPSVFPLAPSSKSTSGGTAALGCLVKDYFPEPVTVSWNSGALTSGVHTFPAVLQSSGLYSLSSVVTVPSSSLGTQTYICNVNHKPSNTKVDKRVEPKSCDKTHTCPPCPAPEFEGGPSVFLFPPKPKDTLMISRTPEVTCVVVDVSHEDPEVKFNWYVDGVEVHNAKTKPREEQYNSTYRVVSVLTVLHQDWLNGKEYKCKVSNKALPASIEKTISKAKGQPREPQVYTLPPSREEMTKNQVSLTCLVKGFYPSDIAVEWESNGQPENNYKTTPPVLDSDGSFFLYSKLTVDKSRWQQGNVFSCSVMHEALHNHYTQKSLSLSPG light: not shown", "Jurkat-Vy9Vo2 TCR MOP activation at 0.5 nM (fold-change to medium)": 5.3, "Jurkat-Vy9Vo2 TCR MOP activation at 5 nM (fold-change to medium)": 4.8}, {"binder": "bsAb014 (bispecific antibody) heavy: QVQLVQSGAEVKKPGASVKLSCKASGYIFTRYYMYWVKQRPGQGLEWIGEINPNNGGTKFNEKFKNRATLTVDKSISTAYMELSRLRSDDTAVYYCSREDDYDGTPFAMDYWGQGTLVTVSSASTKGPSVFPLAPSSKSTSGGTAALGCLVKDYFPEPVTVSWNSGALTSGVHTFPAVLQSSGLYSLSSVVTVPSSSLGTQTYICNVNHKPSNTKVDKRVEPKSCDKTHTCPPCPAPEFEGGPSVFLFPPKPKDTLMISRTPEVTCVVVDVSHEDPEVKFNWYVDGVEVHNAKTKPREEQYNSTYRVVSVLTVLHQDWLNGKEYKCKVSNKALPASIEKTISKAKGQPREPQVYTLPPSREEMTKNQVSLTCLVKGFYPSDIAVEWESNGQPENNYKTTPPVLDSDGSFFLYSKLTVDKSRWQQGNVFSCSVMHEALHNHYTQKSLSLSPG light: not shown", "Jurkat-Vy9Vo2 TCR MOP activation at 0.5 nM (fold-change to medium)": 6.4, "Jurkat-Vy9Vo2 TCR MOP activation at 5 nM (fold-change to medium)": 4.6}, {"binder": "bsAb036 (bispecific antibody, not shown: small tags and cut ends; a dimerising Fc or GST) heavy (part 1 of 2): EVQLVESGGGLVQPGGSLRLSCAASGFTFSRYWMSWVRQAPGKGLEWVANIKQDGSEKYYVDSVKGRFTISRDNAKNSLYLQMNSLRAEDTAVYYCAREGGWFGELAFDYWGQGTLVTVSS heavy (part 2 of 2): GGGGSGGGGSGGGGSGGGGSQVQLVQSGAEVKKPGASVKLSCKASGYIFTRYYMYWVKQRPGQGLEWIGEINPNNGGTKFNEKFKNRATLTVDKSISTAYMELSRLRSDDTAVYYCSREDDYDGTPFAMDYWGQGTLVTVSSGGGGSGGGGSGGGGSGGGGSDIQMTQSPSSLSASVGDRVTITCHASQNINVWLSWYQQKPGKAPKLLIYKASNLHTGVPSRFTGSGSGTDFTFTISSLQPEDIATYYCQQGQTYPYTFGQGTKLEIK heavy: GGGGSGGGGSGGGGSGGGGSQVQLVQSGAEVKKPGASVKLSCKASGYIFTRYYMYWVKQRPGQGLEWIGEINPNNGGTKFNEKFKNRATLTVDKSISTAYMELSRLRSDDTAVYYCSREDDYDGTPFAMDYWGQGTLVTVSSGGGGSGGGGSGGGGSGGGGSDIQMTQSPSSLSASVGDRVTITCHASQNINVWLSWYQQKPGKAPKLLIYKASNLHTGVPSRFTGSGSGTDFTFTISSLQPEDIATYYCQQGQTYPYTFGQGTKLEIK light: EIVLTQSPGTLSLSPGERATLSCRASQRVSSSYLAWYQQKPGQAPRLLIYDASSRATGIPDRFSGSGSGTDFTLTISRLEPEDFAVYYCQQYGSLPWTFGQGTKVEIKRTVAAPSVFIFPPSDEQLKSGTASVVCLLNNFYPREAKVQWKVDNALQSGNSQESVTEQDSKDSTYSLSSTLTLSKADYEKHKVYACEVTHQGLSSPVTKSFNRGEC", "Jurkat-Vy9Vo2 TCR MOP activation at 0.5 nM (fold-change to medium)": 0.9, "Jurkat-Vy9Vo2 TCR MOP activation at 5 nM (fold-change to medium)": 0.9}, {"binder": "bsAb054 (bispecific antibody, not shown: small tags and cut ends) heavy (part 1 of 2): EVQLVESGGGLVQPGGSLRLSCAASGFTFSRYWMSWVRQAPGKGLEWVANIKQDGSEKYYVDSVKGRFTISRDNAKNSLYLQMNSLRAEDTAVYYCAREGGWFGELAFDYWGQGTLVTVSS heavy (part 2 of 2): GGGGSGGGGSGGGGSGGGGSQVQLVQSGAEVKKPGASVKLSCKASGYIFTRYYMYWVKQRPGQGLEWIGEINPNNGGTKFNEKFKNRATLTVDKSISTAYMELSRLRSDDTAVYYCSREDDYDGTPFAMDYWGQGTLVTVSSGGGGSGGGGSGGGGSGGGGSDIQMTQSPSSLSASVGDRVTITCHASQNINVWLSWYQQKPGKAPKLLIYKASNLHTGVPSRFTGSGSGTDFTFTISSLQPEDIATYYCQQGQTYPYTFGQGTKLEIK heavy: EVQLVESGGGLVQPGGSLRLSCAASGFTFSRYWMSWVRQAPGKGLEWVANIKQDGSEKYYVDSVKGRFTISRDNAKNSLYLQMNSLRAEDTAVYYCAREGGWFGELAFDYWGQGTLVTVSS light: EIVLTQSPGTLSLSPGERATLSCRASQRVSSSYLAWYQQKPGQAPRLLIYDASSRATGIPDRFSGSGSGTDFTLTISRLEPEDFAVYYCQQYGSLPWTFGQGTKVEIKRTVAAPSVFIFPPSDEQLKSGTASVVCLLNNFYPREAKVQWKVDNALQSGNSQESVTEQDSKDSTYSLSSTLTLSKADYEKHKVYACEVTHQGLSSPVTKSFNRGEC", "Jurkat-Vy9Vo2 TCR MOP activation at 0.5 nM (fold-change to medium)": 2.8, "Jurkat-Vy9Vo2 TCR MOP activation at 5 nM (fold-change to medium)": 1}, {"binder": "bsAb070 (bispecific antibody, not shown: small tags and cut ends; a dimerising Fc or GST) heavy 1: EVQLVESGGGLVQPGGSLRLSCAASGFTFSRYWMSWVRQAPGKGLEWVANIKQDGSEKYYVDSVKGRFTISRDNAKNSLYLQMNSLRAEDTAVYYCAREGGWFGELAFDYWGQGTLVTVSS heavy 2: QVQLVQSGAEVKKPGASVKLSCKASGYIFTRYYMYWVKQRPGQGLEWIGEINPNNGGTKFNEKFKNRATLTVDKSISTAYMELSRLRSDDTAVYYCSREDDYDGTPFAMDYWGQGTLVTVSSGGGGSGGGGSGGGGSGGGGSDIQMTQSPSSLSASVGDRVTITCHASQNINVWLSWYQQKPGKAPKLLIYKASNLHTGVPSRFTGSGSGTDFTFTISSLQPEDIATYYCQQGQTYPYTFGQGTKLEIKGGGGSGGGGSGGGGSGGGGS light: EIVLTQSPGTLSLSPGERATLSCRASQRVSSSYLAWYQQKPGQAPRLLIYDASSRATGIPDRFSGSGSGTDFTLTISRLEPEDFAVYYCQQYGSLPWTFGQGTKVEIKRTVAAPSVFIFPPSDEQLKSGTASVVCLLNNFYPREAKVQWKVDNALQSGNSQESVTEQDSKDSTYSLSSTLTLSKADYEKHKVYACEVTHQGLSSPVTKSFNRGECGGGGSGGGGSGGGGSGGGGSDIQMTQSPSSLSASVGDRVTITCHASQNINVWLSWYQQKPGKAPKLLIYKASNLHTGVPSRFTGSGSGTDFTFTISSLQPEDIATYYCQQGQTYPYTFGQGTKLEIKGGGGSGGGGSGGGGSGGGGSQVQLVQSGAEVKKPGASVKLSCKASGYIFTRYYMYWVKQRPGQGLEWIGEINPNNGGTKFNEKFKNRATLTVDKSISTAYMELSRLRSDDTAVYYCSREDDYDGTPFAMDYWGQGTLVTVSS", "Jurkat-Vy9Vo2 TCR MOP activation at 0.5 nM (fold-change to medium)": 1.5, "Jurkat-Vy9Vo2 TCR MOP activation at 5 nM (fold-change to medium)": 1.3}, {"binder": "bsAb041 (bispecific antibody, not shown: small tags and cut ends; a dimerising Fc or GST) heavy (part 1 of 2): EVQLVESGGGLVQPGGSLRLSCAASGFTFSRYWMSWVRQAPGKGLEWVANIKQDGSEKYYVDSVKGRFTISRDNAKNSLYLQMNSLRAEDTAVYYCAREGGWFGELAFDYWGQGTLVTVSS heavy (part 2 of 2): GGGGSGGGGSGGGGSGGGGSDIQMTQSPSSLSASVGDRVTITCHASQNINVWLSWYQQKPGKAPKLLIYKASNLHTGVPSRFTGSGSGTDFTFTISSLQPEDIATYYCQQGQTYPYTFGQGTKLEIKGGGGSGGGGSGGGGSGGGGSQVQLVQSGAEVKKPGASVKLSCKASGYIFTRYYMYWVKQRPGQGLEWIGEINPNNGGTKFNEKFKNRATLTVDKSISTAYMELSRLRSDDTAVYYCSREDDYDGTPFAMDYWGQGTLVTVSS heavy: GGGGSGGGGSGGGGSGGGGSDIQMTQSPSSLSASVGDRVTITCHASQNINVWLSWYQQKPGKAPKLLIYKASNLHTGVPSRFTGSGSGTDFTFTISSLQPEDIATYYCQQGQTYPYTFGQGTKLEIKGGGGSGGGGSGGGGSGGGGSQVQLVQSGAEVKKPGASVKLSCKASGYIFTRYYMYWVKQRPGQGLEWIGEINPNNGGTKFNEKFKNRATLTVDKSISTAYMELSRLRSDDTAVYYCSREDDYDGTPFAMDYWGQGTLVTVSS light: EIVLTQSPGTLSLSPGERATLSCRASQRVSSSYLAWYQQKPGQAPRLLIYDASSRATGIPDRFSGSGSGTDFTLTISRLEPEDFAVYYCQQYGSLPWTFGQGTKVEIKRTVAAPSVFIFPPSDEQLKSGTASVVCLLNNFYPREAKVQWKVDNALQSGNSQESVTEQDSKDSTYSLSSTLTLSKADYEKHKVYACEVTHQGLSSPVTKSFNRGEC", "Jurkat-Vy9Vo2 TCR MOP activation at 0.5 nM (fold-change to medium)": 0.9, "Jurkat-Vy9Vo2 TCR MOP activation at 5 nM (fold-change to medium)": 1}, {"binder": "bsAb069 (bispecific antibody, not shown: small tags and cut ends; a dimerising Fc or GST) heavy 1: EVQLVESGGGLVQPGGSLRLSCAASGFTFSRYWMSWVRQAPGKGLEWVANIKQDGSEKYYVDSVKGRFTISRDNAKNSLYLQMNSLRAEDTAVYYCAREGGWFGELAFDYWGQGTLVTVSS heavy 2: DIQMTQSPSSLSASVGDRVTITCHASQNINVWLSWYQQKPGKAPKLLIYKASNLHTGVPSRFTGSGSGTDFTFTISSLQPEDIATYYCQQGQTYPYTFGQGTKLEIKGGGGSGGGGSGGGGSGGGGSQVQLVQSGAEVKKPGASVKLSCKASGYIFTRYYMYWVKQRPGQGLEWIGEINPNNGGTKFNEKFKNRATLTVDKSISTAYMELSRLRSDDTAVYYCSREDDYDGTPFAMDYWGQGTLVTVSSGGGGSGGGGSGGGGSGGGGS light: EIVLTQSPGTLSLSPGERATLSCRASQRVSSSYLAWYQQKPGQAPRLLIYDASSRATGIPDRFSGSGSGTDFTLTISRLEPEDFAVYYCQQYGSLPWTFGQGTKVEIKRTVAAPSVFIFPPSDEQLKSGTASVVCLLNNFYPREAKVQWKVDNALQSGNSQESVTEQDSKDSTYSLSSTLTLSKADYEKHKVYACEVTHQGLSSPVTKSFNRGECGGGGSGGGGSGGGGSGGGGSQVQLVQSGAEVKKPGASVKLSCKASGYIFTRYYMYWVKQRPGQGLEWIGEINPNNGGTKFNEKFKNRATLTVDKSISTAYMELSRLRSDDTAVYYCSREDDYDGTPFAMDYWGQGTLVTVSSGGGGSGGGGSGGGGSGGGGSDIQMTQSPSSLSASVGDRVTITCHASQNINVWLSWYQQKPGKAPKLLIYKASNLHTGVPSRFTGSGSGTDFTFTISSLQPEDIATYYCQQGQTYPYTFGQGTKLEIK", "Jurkat-Vy9Vo2 TCR MOP activation at 0.5 nM (fold-change to medium)": 2.4, "Jurkat-Vy9Vo2 TCR MOP activation at 5 nM (fold-change to medium)": 3.8}, {"binder": "ICT01 (antibody, V domains shown) VH: QVQLVQSGAEVKKPGASVKLSCKASGYIFTRYYMYWVKQRPGQGLEWIGEINPNNGGTKFNEKFKNRATLTVDKSISTAYMELSRLRSDDTAVYYCSREDDYDGTPFAMDYWGQGTLVTVSS VL: DIQMTQSPSSLSASVGDRVTITCHASQNINVWLSWYQQKPGKAPKLLIYKASNLHTGVPSRFTGSGSGTDFTFTISSLQPEDIATYYCQQGQTYPYTFGQGTKLEIK", "Jurkat-Vy9Vo2 TCR MOP activation at 0.5 nM (fold-change to medium)": 12.5, "Jurkat-Vy9Vo2 TCR MOP activation at 5 nM (fold-change to medium)": 11.7, "dose at which Jurkat-Vγ9Vδ2 TCR MOP activation was evident": 0.05, "increase in CD107ab expression on Vγ9Vδ2 T cells co-cultured with SKOV3 cells, 0.1 nM": 1.9}]}]}
